Assay results from article PMC5261807 (2017).
Non-standard residues stand in square brackets, D forms with d. Primed or numbered codes have the meaning given here. No end group written: not given here. Me2a″ = asymmetric dimethylarginine (Rme2a); Arg(Me2a) = CN(C)C(=N)NCCC[C@H](N)C(=O)O; Lys(Me3) = C[N+](C)(C)CCCC[C@H](N)C(=O)O; Arg(Me2s) = CN=C(NC)NCCC[C@H](N)C(=O)O; pT = C[C@@H](OP(=O)(O)O)[C@H](N)C(=O)O; Me2a = asymmetric dimethyl (on Arg); Lys(Me2) = CN(C)CCCC[C@H](N)C(=O)O; Me2s = symmetric dimethyl (on Arg); pS = N[C@@H](COP(=O)(O)O)C(=O)O; Lys(Me) = CNCCCC[C@H](N)C(=O)O; Me3″ = trimethyl lysine (Kme3)

T1: Bdf1 bromodomain 2 (GST-tagged, WT) (Saccharomyces cerevisiae (strain ATCC …, UniProt P35817))
T1 chain: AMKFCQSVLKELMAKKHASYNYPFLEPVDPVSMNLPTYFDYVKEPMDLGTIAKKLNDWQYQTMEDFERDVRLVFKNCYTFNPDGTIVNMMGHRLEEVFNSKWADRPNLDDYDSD

T2: Bdf1 bromodomain 1 (GST-tagged, WT) (Saccharomyces cerevisiae (strain ATCC …, UniProt P35817))
T2 chain: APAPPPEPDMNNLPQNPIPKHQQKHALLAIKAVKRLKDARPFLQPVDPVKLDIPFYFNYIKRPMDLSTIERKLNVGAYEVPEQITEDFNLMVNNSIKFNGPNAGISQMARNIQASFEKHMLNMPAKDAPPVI

B1: H4 1-19 (peptide)
chain: SGRGKGGKGLGKGGAKRHR
modifications: histone peptides carry modifications given inline in the sequence and in columns 4-7 (Kac, Kme1/2/3, Rme2a/s, Cit, pS/pT); N-terminus free or acetylated

Key:
[1] = target: T1, Bdf1 bromodomain 2 (GST-tagged, WT); assay: histone peptide array probed with recombinant GST-bromodomain, signal normalised to myc peptide control
[2] = target: T2, Bdf1 bromodomain 1 (GST-tagged, WT); assay: as above

| Binder | binding score [1] | binding score [2] |
| --- | --- | --- |
| ARTKQTARKSTGGKAPRKQ (A R T Kme2 Q T A R K S T G G K A P R K Q) | 0.006 | 0 |
| SGRGKGGKGLGKGGAKRHR (S G R G K G G Kac G L G K G G A K R H R) | 0.0237 | 0.0203 |
| AR[pT][Lys(Me2)]QTARKSTGGKAPRKQ | 0.00895 | 0.00161 |
| A[Arg(Me2s)]T[Lys(Me3)]QTA[Arg(Me2s)][Lys(Me3)]STGGKAPRKQ | 0 | 0.00789 |
| SGRGKGGKGLGKGGAKRHR (S G Rme2a G K G G Kac G L G K G G A K R H R) | 0.0345 | 0.0183 |
| ARTKQTARKSTGGKAPRKQ (A R T Kme1 Q T A Rme2s Kme2 S T G G K A P R K Q) | 0.00364 | 0.00879 |
| ARTKQTARKSTGGKAPRKQ (A R T K Q T A R Kac S T G G K A P R K Q) | 0.00364 | 0.000897 |
| A[Arg(Me2s)]T[Lys(Me3)]QTA[Arg(Me2a)][Lys(Me2)]STGGKAPRKQ | 0 | 0.00197 |
| ARTKQTARKSTGGKAPRKQ (A Rme2a T Kme2 Q T A Rme2a Kme1 S T G G K A P R K Q) | 0 | 0.00897 |
| SGRGKGGKGLGKGGAKRHR (S G R G K G G K G L G Kac G G A Kac R H R) | 0.21 | 0.206 |
| A[Arg(Me2s)]T[Lys(Me3)]QTAR[Lys(Me)]STGGKAPRKQ | 0.00895 | 0 |
| ARTKQTARKSTGGKAPRKQ (A R T Kac Q T A Rme2s Kme3 S T G G K A P R K Q) | 0.00482 | 0.00287 |
| ARTKQTARKSTGGKAPRKQ (A Rme2a T Kme1 Q T A Rme2a Kme3 S T G G K A P R K Q) | 0.00285 | 0.00197 |
| ARTKQTARKSTGGKAPRKQ (A R T Kac Q T A Rme2a Kme1 S T G G K A P R K Q) | 0.00423 | 0.00323 |
| A[Arg(Me2s)][pT]K(Ac)QTARKSTGGKAPRKQ | 0.0206 | 0.0231 |
| RKSAPATGGVKKPHRYRPG (R K S A P A T G G V Kme2 K P H R Y R P G) [H3 26-45] | 0 | 0 |
| SGRGKGGKGLGKGGAKRHR (S G Rme2a G K G G K G L G K G G A K R H R) | 0.00305 | 0.0247 |
| ARTKQTA[Arg(Me2a)][Lys(Me3)][pS]TGGKAPRKQ | 0 | 0 |
| ARTKQTARKSTGGKAPRKQ (A Rme2s T Kme1 Q T A Rme2a Kme3 S T G G K A P R K Q) | 0 | 0.00628 |
| PRKQLATKAA[Arg(Me2a)][Lys(Me2)]SAPATGG | 0 | 0.00789 |
| ARTKQTARKSTGGKAPRKQ (A R T Kme2 Q T A Rme2s Kme3 S T G G K A P R K Q) | 0 | 0.00592 |
| B1 | 0 | 0.00897 |
| A[Arg(Me2s)][pT]KQTARKSTGGKAPRKQ | 0.00502 | 0 |
| ARTKQTARKSTGGKAPRKQ (A R T Kme1 Q T A Rme2s Kac S T G G K A P R K Q) | 0.0265 | 0.0247 |
| PRKQLATKAARK(Ac)SAPATGG | 0.00915 | 0 |
| AR[pT]K(Me)QTARKSTGGKAPRKQ | 0.00679 | 0 |

| Binder | binding score [1] | binding score [2] |
| --- | --- | --- |
| PRKQLATKAAR(Me2a″)K(Me3″)SAPATGG | 0.00167 | 0 |
| ARTKQTARKSTGGKAPRKQ (A R T K Q T A Rme2a K S T G G K A P R K Q) | 0 | 0 |
| ARTKQTARKSTGGKAPRKQ (A Rme2s pT Kme2 Q T A R K S T G G K A P R K Q) | 0 | 0 |
| A[Arg(Me2a)]T[Lys(Me)]QTARK(Ac)STGGKAPRKQ | 0.00207 | 0.00699 |
| SGRGKGGKGLGKGGAKRHR (S G R G Kac G G Kac G L G Kac G G A Kac R H R) | 0.944 | 0.561 |
| ARTKQTARKSTGGKAPRKQ (A Rme2s T Kme3 Q T A Rme2s Kac S T G G K A P R K Q) | 0.0385 | 0.0104 |
| ARTKQTARKSTGGKAPRKQ (A Rme2a T Kme3 Q T A Rme2a Kme1 S T G G K A P R K Q) | 0 | 0 |
| ART[Lys(Me3)]QTA[Arg(Me2s)][Lys(Me2)]STGGKAPRKQ | 0.00561 | 0.00628 |
| A[Arg(Me2a)]TKQTARKSTGGKAPRKQ | 0.00462 | 0.0095 |
| PRKQLATKAAR[Lys(Me3)][pS]APATGG | 0 | 0 |
| ARTKQTARKSTGGKAPRKQ (A Rme2s T Kac Q T A Rme2s Kme3 S T G G K A P R K Q) | 0.00521 | 0.00538 |
| ARTKQTA[Arg(Me2s)][Lys(Me2)]S[pT]GGKAPRKQ | 0.00915 | 0.0052 |
| SGRGKGGKGLGKGGAKRHR (S G Rme2s G Kac G G Kac G L G K G G A K R H R) | 0.275 | 0.123 |
| ARTKQTARKSTGGKAPRKQ (A Rme2a T Kme1 Q T A R Kme2 S T G G K A P R K Q) | 0.0062 | 0.00538 |
| PRKQLATKAA[Arg(Me2a)]K[pS]APATGG | 0 | 0 |
| PDPAKSAPAPKKGSKKAVT (not fully specified) [H2B 1-19] | 0.00266 | 0 |
| ARTKQTARKSTGGKAPRKQ (A R T K Q T A R Kac S T G G Kac A P R K Q) | 0.209 | 0.108 |
| SGRGKGGKGLGKGGAKRHR (S G Rme2a G Kac G G K G L G K G G A K R H R) | 0.0707 | 0 |
| AR(Me2a″)TK(Ac)QTAR(Me2a″)K(Ac)STGGKAPRKQ | 0.0867 | 0.0387 |
| AR(Me2s)TK(Ac)QTAR(Me2s)K(Me)STGGKAPRKQ | 0.00561 | 0.00161 |
| A[Arg(Me2a)][pT][Lys(Me2)]QTARKSTGGKAPRKQ | 0.00246 | 0 |
| ARTKQTA[Arg(Me2a)]KS[pT]GGKAPRKQ | 0 |  |
| ARTKQTAR(Me2a)K(Me)STGGKAPRKQ | 0 |  |
| ARTKQTA[Arg(Me2a)]K[pS]TGGKAPRKQ | 0 |  |
| A[Arg(Me2a)][pT]KQTARKSTGGKAPRKQ |  | 0 |
